Target: HaloTag-NLpep86 fusion proteins (internal fusions)
Assay: luminescence complementation in transfected HeLa cells

- efficiency of structural complementation relative to N- or C-terminal NLpep86 fusions to HaloTag: 1 to 40%
Substance: NLpoly11S
